The results in this text go back to PMC11546159.

The assay has as its target HLA-A*02:01 on the surface of T2 cells. Nature of the assay: FACS, anti-HLA antibody staining of peptide-pulsed T2 cells (% HLA-A*02+). The conditions noted are these: peptide 50 μM. On the technique in general: In flow cytometry, cells or beads pass a laser one at a time.
[1] abbreviates: parent: est. 77, read off a plot.

As to HPV16 E6 29-38 peptide C9A, the response (parent: 79) was 60% and the response under setting [1] amounted to 58%.
On to HPV16 E6 29-38 peptide D4A, for which, for the setting “parent: 79”, the response is 1.9%.
Turning to HPV16 E6 29-38 peptide E8A, the response reads like this: (parent: 79) 74%; under setting [1], 76%.
Taken in the same sequence, the figures for HPV16 E6 29-38 peptide H3A were 84% and 81%.
In the case of HPV16 E6 29-38 peptide I2A, for the setting “parent: 79”, the response was found to be 2%.
Take HPV16 E6 29-38 peptide I5A: the response runs as follows: (parent: 79) 33%; under setting [1], 34%.
Taken in the same sequence, the figures for HPV16 E6 29-38 peptide I6A were 71% and 69%.
On to HPV16 E6 29-38 peptide L7A, for which the response (parent: 79) came out at 2.4%.
Regarding HPV16 E6 29-38 peptide T1A, the response came to 79% (parent: 79) and 79% under setting [1].
Consider HPV16 E6 29-38 peptide V10A, for which the response (parent: 79) is 2%.
